Results as given in article PMC4383044, “Molecular insights into RNA and DNA helicase evolution from the determinants of specificity for a DEAD-box RNA helicase” (eLife, 2014).

Tests used:
[1] = molecular target: T1, Mss116 helicase core (D1D2, residues 88–597) (Saccharomyces cerevisiae, UniProt P15424); test: kinetic gel-based dsRNA unwinding; type: biochemical; conditions: 5 mM ATP-Mg, 2 uM D1D2, 125 nM labelled 12-bp dsRNA, pH 7.5, 22 °C
T1 construct: helicase core D1D2 (residues 88-597; D1, D2 and CTE), lacking unstructured N- (37-87) and C-terminal (598-664) extensions; expressed as N-terminal MalE (MBP) fusion in E. coli Rosetta 2; D1D2 used for crystals and kinetic unwinding
T1 sequence (P15424 88-597): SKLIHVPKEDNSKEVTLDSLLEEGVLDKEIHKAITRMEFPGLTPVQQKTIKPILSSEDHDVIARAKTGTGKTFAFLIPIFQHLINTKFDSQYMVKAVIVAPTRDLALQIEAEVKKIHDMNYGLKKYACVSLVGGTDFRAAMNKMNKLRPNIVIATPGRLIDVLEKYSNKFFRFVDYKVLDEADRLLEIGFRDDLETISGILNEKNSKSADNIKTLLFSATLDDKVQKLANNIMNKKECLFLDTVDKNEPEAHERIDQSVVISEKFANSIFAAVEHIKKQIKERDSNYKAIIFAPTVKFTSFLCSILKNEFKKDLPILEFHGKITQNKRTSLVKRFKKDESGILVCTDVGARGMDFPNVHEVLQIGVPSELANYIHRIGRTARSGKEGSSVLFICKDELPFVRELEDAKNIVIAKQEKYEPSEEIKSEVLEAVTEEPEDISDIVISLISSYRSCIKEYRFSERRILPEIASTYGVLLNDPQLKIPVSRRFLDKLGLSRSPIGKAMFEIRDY

[2] = molecular target: T2, Mss116 D2, MBP-tagged (Saccharomyces cerevisiae? (paper: yeast), UniProt P15424 342-597); test: EMSA; no nucleotide; Hill 2.2; 20 mM Tris-HCl pH 7.5, 100 mM KCl, 10% glycerol, 1 mM DTT, 5 mM MgCl2, 0.1 mg/ml BSA, 22 C, >=1 h; EMSA gels 6% at 4 C in 0.5x TBE; SEC with 200 mM KCl, no BSA; conditions: protein: recombinant; tags: N-terminal MBP (MalE); label: 5' FAM; self-complementary, 2 strand copies, 12 bp
T2 sequence: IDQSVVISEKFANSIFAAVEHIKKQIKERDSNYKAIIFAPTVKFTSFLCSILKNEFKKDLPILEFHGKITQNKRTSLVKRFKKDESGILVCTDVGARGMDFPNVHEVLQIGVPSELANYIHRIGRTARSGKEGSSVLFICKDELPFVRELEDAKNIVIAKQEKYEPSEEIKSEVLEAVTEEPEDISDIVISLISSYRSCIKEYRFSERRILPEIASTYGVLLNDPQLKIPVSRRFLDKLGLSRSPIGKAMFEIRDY

[3] = molecular target: T2, Mss116 D2, MBP-tagged; test: EMSA; no nucleotide; Hill 1.5; 20 mM Tris-HCl pH 7.5, 100 mM KCl, 10% glycerol, 1 mM DTT, 5 mM MgCl2, 0.1 mg/ml BSA, 22 C, >=1 h; EMSA gels 6% at 4 C in 0.5x TBE; SEC with 200 mM KCl, no BSA; conditions: protein: recombinant; tags: N-terminal MBP (MalE); label: 5' FAM; self-complementary, 2 strand copies, 12 bp
[4] = molecular target: T3, Mss116 helicase core D1D2, MBP-tagged (Saccharomyces cerevisiae? (paper: yeast), UniProt P15424 88-597); test: gel-based fluorescence closed-state/unwinding assay; ADP-BeFx titrated (value is nucleotide concentration), 2 uM protein; 20 mM Tris-HCl pH 7.5, 100 mM KCl, 10% glycerol, 1 mM DTT, 5 mM MgCl2, 0.1 mg/ml BSA, 22 C, >=1 h; EMSA gels 6% at 4 C in 0.5x TBE; SEC with 200 mM KCl, no BSA; conditions: protein: recombinant; tags: N-terminal MBP (MalE); label: 5' FAM, 3' Iowa Black FQ; self-complementary, 2 strand copies, 12 bp
T3 sequence: T1 sequence (P15424 88-597)

[5] = molecular target: T2, Mss116 D2, MBP-tagged; test: EMSA; no nucleotide; Hill 1.6; 20 mM Tris-HCl pH 7.5, 100 mM KCl, 10% glycerol, 1 mM DTT, 5 mM MgCl2, 0.1 mg/ml BSA, 22 C, >=1 h; EMSA gels 6% at 4 C in 0.5x TBE; SEC with 200 mM KCl, no BSA; conditions: protein: recombinant; tags: N-terminal MBP (MalE); label: 5' FAM; self-complementary, 2 strand copies, 12 bp
[6] = molecular target: T2, Mss116 D2, MBP-tagged; test: competition; unlabeled B-DNA displacing 250 nM 5' FAM-dsRNA from 500 nM MBP-D2; 20 mM Tris-HCl pH 7.5, 100 mM KCl, 10% glycerol, 1 mM DTT, 5 mM MgCl2, 0.1 mg/ml BSA, 22 C, >=1 h; EMSA gels 6% at 4 C in 0.5x TBE; SEC with 200 mM KCl, no BSA; conditions: protein: recombinant; tags: N-terminal MBP (MalE); self-complementary, 2 strand copies, 12 bp
[7] = molecular target: T4, Mss116 helicase core D1D2 (Saccharomyces cerevisiae? (paper: yeast), UniProt P15424 88-597); test: SEC; 5 mM ADP-BeFx; A260/A280 0.6, open; no complex maintained on column; 20 mM Tris-HCl pH 7.5, 100 mM KCl, 10% glycerol, 1 mM DTT, 5 mM MgCl2, 0.1 mg/ml BSA, 22 C, >=1 h; EMSA gels 6% at 4 C in 0.5x TBE; SEC with 200 mM KCl, no BSA; conditions: protein: recombinant; tags: expressed as MalE fusion; self-complementary, 2 strand copies, 12 bp
T4 sequence: T1 sequence (P15424 88-597)

[8] = molecular target: T2, Mss116 D2, MBP-tagged; test: competition; unlabeled dsRNA displacing 250 nM 5' FAM-B-DNA from 500 nM MBP-D2; 20 mM Tris-HCl pH 7.5, 100 mM KCl, 10% glycerol, 1 mM DTT, 5 mM MgCl2, 0.1 mg/ml BSA, 22 C, >=1 h; EMSA gels 6% at 4 C in 0.5x TBE; SEC with 200 mM KCl, no BSA; conditions: protein: recombinant; tags: N-terminal MBP (MalE); self-complementary, 2 strand copies, 12 bp

Molecule: Nc1ncnc2c1ncn2[C@@H]1O[C@H](COP(=O)(O)OP(=O)(O)OP(=O)(O)O)[C@@H](O)[C@H]1O [ATP]
- kinetic gel-based dsRNA unwinding [1]: only ATP, and not other NTPs, catalyzes the unwinding of the dsRNA

B1: 12-bp dsRNA, 5' FAM (dsRNA)
RNA 1: CCCCCGCGGGGG
RNA 2: CCCCCGCGGGGG
- apparent K (half saturation) [2]: 400 nM

B2: 12-bp A-DNA duplex, 5' FAM (dsDNA)
DNA 1: CCCCCGCGGGGG
DNA 2: CCCCCGCGGGGG
- apparent K (half saturation) [3]: 410 nM

B3: 12-bp dsRNA, FAM/IBFQ (dsRNA)
RNA 1: CCCCCGCGGGGG
RNA 2: CCCCCGCGGGGG
- apparent K (half saturation) [4]: 140 µM

B4: 12-bp B-DNA duplex, 5' FAM (dsDNA)
DNA 1: GCGCGCGCGCGC
DNA 2: GCGCGCGCGCGC
- apparent K (half saturation) [5]: 510 nM

B5: 12-bp B-DNA duplex, unlabeled (dsDNA)
DNA 1: GCGCGCGCGCGC
DNA 2: GCGCGCGCGCGC
- Ki [6]: 1700 ± 200 nM
- binding result [7]: no binding

B6: 12-bp dsRNA, unlabeled (dsRNA)
RNA 1: CCCCCGCGGGGG
RNA 2: CCCCCGCGGGGG
- Ki [8]: 860 ± 40 nM
